1 substance from PMC4611711 can be followed below.

The target in this test is truncated Bid (tBid) of cleaved Bid (cBid) 190C labeled with Alexa Fluor 488 (murine) (UniProt P70444).

In the case of “p7 fragment of Bid (from cleaved Bid 190C) (domain or fragment)”, the Kd – broadly, a measure of binding affinity in units of concentration – is 40 nM. This counts as double-digit nanomolar.
